# In patent US20180155451A1 (published 2018):
# T1: FcγRIIb (human, UniProt P31994 43-217)
# T1 construct: extracellular domain; also called 2b; FcgRIIb
# T1 sequence (looked up): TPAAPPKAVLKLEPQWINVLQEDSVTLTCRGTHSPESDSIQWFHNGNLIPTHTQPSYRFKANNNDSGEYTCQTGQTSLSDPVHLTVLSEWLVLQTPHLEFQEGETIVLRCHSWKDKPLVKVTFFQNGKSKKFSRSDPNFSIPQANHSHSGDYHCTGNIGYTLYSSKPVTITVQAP
# T2: FcγRIIb extracellular domain with C-terminal His tag (human, UniProt P31994 43-217)
# T2 construct: extracellular domain; also called 2b; FcgRIIb; not shown: His tag at the C terminus
# T2 sequence (looked up): T1 sequence (looked up)
# B1: GpH7-A5/GpH7-B3 variant S337_08L/GpL16-k0 (antibody, human IgG1, kappa)
# heavy 1: not shown
# heavy 2: not shown
# light: DIVMTQSPLSLPVTPGEPASISCQASESLVHSNRNTYLHWYLQKPGQSPQLLIYKVSNRFSGVPDRFSGSGSGTDFTLKISRVEAEDVGVYYCSQNTHVPPTFGQGTKVEIERTVAAPSVFIFPPSDEQLKSGTASVVCLLNNFYPREAKVQWKVDNALQSGNSQESVTEQDSKDSTYSLSSTLTLSKADYEKHKVYACEVTHQGLSSPVTKSFNRGEC
# notes: also called He Ab S337_08L
# B2: GpH7-A5/GpH7-B3 variant T335_18N/GpL16-k0 (antibody, human IgG1, kappa)
# heavy 1: not shown
# heavy 2: not shown
# light: B1 light
# notes: also called He Ab T335_18N
# B3: GpH7-A5/GpH7-B3 variant T335_19Q/GpL16-k0 (antibody, human IgG1, kappa)
# heavy 1: not shown
# heavy 2: not shown
# light: B1 light
# notes: also called He Ab T335_19Q
# B4: GpH7-A5/GpH7-B3 variant P238_15Y/GpL16-k0 (antibody, human IgG1, kappa)
# heavy 1: not shown
# heavy 2: not shown
# light: B1 light
# notes: also called He Ab P238_15Y
# B5: GpH7-A5/GpH7-B3 variant Y296_20W/GpL16-k0 (antibody, human IgG1, kappa)
# heavy 1: not shown
# heavy 2: not shown
# light: B1 light
# notes: also called He Ab Y296_20W
# B6: GpH7-A5/GpH7-B3 variant P331_15Y/GpL16-k0 (antibody, human IgG1, kappa)
# heavy 1: not shown
# heavy 2: not shown
# light: B1 light
# notes: also called He Ab P331_15Y
# B7: GpH7-A5/GpH7-B3 variant S239_06M/GpL16-k0 (antibody, human IgG1, kappa)
# heavy 1: not shown
# heavy 2: not shown
# light: B1 light
# notes: also called He Ab S239_06M
# B8: GpH7-A5/GpH7-B3 variant S337_16H/GpL16-k0 (antibody, human IgG1, kappa)
# heavy 1: not shown
# heavy 2: not shown
# light: B1 light
# notes: also called He Ab S337_16H
# B9: GpH7-A5/GpH7-B3 variant P331_07I/GpL16-k0 (antibody, human IgG1, kappa)
# heavy 1: not shown
# heavy 2: not shown
# light: B1 light
# notes: also called He Ab P331_07I
# B10: GpH7-A5/GpH7-B3 variant T335_20W/GpL16-k0 (antibody, human IgG1, kappa)
# heavy 1: not shown
# heavy 2: not shown
# light: B1 light
# notes: also called He Ab T335_20W
# B11: GpH7-A5/GpH7-B3 variant P271_10E/GpL16-k0 (antibody, human IgG1, kappa)
# heavy 1: not shown
# heavy 2: not shown
# light: B1 light
# notes: also called He Ab P271_10E
# B12: GpH7-A5/GpH7-B3 variant T335_07I/GpL16-k0 (antibody, human IgG1, kappa)
# heavy 1: not shown
# heavy 2: not shown
# light: B1 light
# notes: also called He Ab T335_07I
# B13: GpH7-A5/GpH7-B3 variant S267_06M/GpL16-k0 (antibody, human IgG1, kappa)
# heavy 1: not shown
# heavy 2: not shown
# light: B1 light
# notes: also called He Ab S267_06M
# B14: GpH7-A5/GpH7-B3 variant P331_03V/GpL16-k0 (antibody, human IgG1, kappa)
# heavy 1: not shown
# heavy 2: not shown
# light: B1 light
# notes: also called He Ab P331_03V
# B15: GpH7-A5/GpH7-B3 variant S267_01G/GpL16-k0 (antibody, human IgG1, kappa)
# heavy 1: not shown
# heavy 2: not shown
# light: B1 light
# notes: also called He Ab S267_01G
# B16: GpH7-A5/GpH7-B3 variant V266_01G/GpL16-k0 (antibody, human IgG1, kappa)
# heavy 1: not shown
# heavy 2: not shown
# light: B1 light
# notes: He Ab: mutation in the GpH7-B3 H chain only; also called He Ab
# B17: GpH7-A5/GpH7-B3 variant D265_02A/GpL16-k0 (antibody, human IgG1, kappa)
# heavy 1: not shown
# heavy 2: not shown
# light: B1 light
# notes: as for B16
# B18: GpH7-A5/GpH7-B3 variant A327_09D/GpL16-k0 (antibody, human IgG1, kappa)
# heavy 1: not shown
# heavy 2: not shown
# light: B1 light
# notes: as for B16
# B19: GpH7-A5/GpH7-B3 variant A327_07I/GpL16-k0 (antibody, human IgG1, kappa)
# heavy 1: not shown
# heavy 2: not shown
# light: B1 light
# notes: as for B16
# B20: GpH7-A5/GpH7-B3 variant A330_01G/GpL16-k0 (antibody, human IgG1, kappa)
# heavy 1: not shown
# heavy 2: not shown
# light: B1 light
# notes: as for B16
# B21: GpH7-A5/GpH7-B3 variant D265_03V/GpL16-k0 (antibody, human IgG1, kappa)
# heavy 1: not shown
# heavy 2: not shown
# light: B1 light
# notes: as for B16
# B22: GpH7-A5/GpH7-B3 variant A327_10E/GpL16-k0 (antibody, human IgG1, kappa)
# heavy 1: not shown
# heavy 2: not shown
# light: B1 light
# notes: as for B16
# B23: GpH7-A5/GpH7-B3 variant V266_20W/GpL16-k0 (antibody, human IgG1, kappa)
# heavy 1: not shown
# heavy 2: not shown
# light: B1 light
# notes: as for B16
# B24: GpH7-A5/GpH7-B3 variant D265_04F/GpL16-k0 (antibody, human IgG1, kappa)
# heavy 1: not shown
# heavy 2: not shown
# light: B1 light
# notes: as for B16
# B25: GpH7-A5/GpH7-B3 variant A327_18N/GpL16-k0 (antibody, human IgG1, kappa)
# heavy 1: not shown
# heavy 2: not shown
# light: B1 light
# notes: as for B16
# B26: GpH7-A5/GpH7-B3 variant D265_19Q/GpL16-k0 (antibody, human IgG1, kappa)
# heavy 1: not shown
# heavy 2: not shown
# light: B1 light
# notes: as for B16
# Biological target: T1, FcγRIIb
# Experiment: SPR (Biacore), binding relative to GpH7-A5/GpH7-B3/GpL16-k0 = 100
# Procedure: (§1) Analysis of interaction between objective antibody and the FcγR was carried out using Biacore T100 (GE Healthcare). HBS-EP+ (GE Healthcare) was used as the running buffer, and the measurement temperature was set to 25° C. Chips produced by immobilizing the antigen peptide by the amine coupling method to a Series S Sencor Chip CM5 (GE Healthcare), or alternatively, chips produced by allowing preliminarily biotinylated antigen peptides to interact with and immobilize onto a Series S Sensor Chip SA (certified) (GE Healthcare) were used. Antibodies of interest were captured onto an antigen peptide-immobilized chip, and allowed to interact to each FcγR diluted with running buffer. To regenerate and repeatedly use the chip, the antibodies captured on the chip were washed off by reacting 10 mM glycine-HCl, pH 1.5.
# (§2) The FcγR-binding activity of each antibody was assessed primarily using as an indicator the FcγR-binding activity and dissociation constant for FcγR.
row,He/Con_2b,Binder
1,100 % of control,B1
2,102 % of control,B2
3,100 % of control,B3
4,218 % of control,B4
5,103 % of control,B5
6,114 % of control,B6
7,101 % of control,B7
8,105 % of control,B8
9,114 % of control,B9
10,104 % of control,B10
11,109 % of control,B11
12,106 % of control,B12
13,210 % of control,B13
14,119 % of control,B14
15,105 % of control,B15

# Biological target: T2, FcγRIIb extracellular domain with …
# Experiment: SPR (Biacore), relative binding, GpH7-A5/GpH7-B3/GpL16-k0 = 100
# Procedure: as §1, §2
row,He/Con_2b,Binder
1,51.5 % of control,B16
2,19.9 % of control,B17
3,172 % of control,B18
4,127 % of control,B19
5,104 % of control,B20
6,3.2 % of control,B21
7,140 % of control,B22
8,71.9 % of control,B23
9,3.2 % of control,B24
10,113 % of control,B25
11,33.4 % of control,B26

# Biological target: T3, FcγRIIIa extracellular domain with C-terminal His tag (human, UniProt P08637 17-208)
# T3 construct: extracellular domain; also called 3a; FcgRIIIa; not shown: His tag at the C terminus
# T3 sequence (P08637 17-208): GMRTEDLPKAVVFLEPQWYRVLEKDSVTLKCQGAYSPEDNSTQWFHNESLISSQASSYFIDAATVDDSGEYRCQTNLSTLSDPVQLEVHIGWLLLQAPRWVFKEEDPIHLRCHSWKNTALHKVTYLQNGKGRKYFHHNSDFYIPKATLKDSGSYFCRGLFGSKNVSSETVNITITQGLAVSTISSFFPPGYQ
# Experiment: as above
# Procedure: as §1, §2
row,He/Con_3a,Binder
1,24 % of control,B16
2,83.7 % of control,B18
3,42.4 % of control,B19
4,89.1 % of control,B20
5,0.6 % of control,B21
6,68.6 % of control,B22
7,0 % of control,B24
8,61.1 % of control,B25
